Test [1] addresses T1, human recombinant his-tagged full-length progranulin (human, UniProt P28799 18-593).
T1 construct: mature; also called huPGRN; hu PGRN; not shown: his tag
T1 sequence (looked up): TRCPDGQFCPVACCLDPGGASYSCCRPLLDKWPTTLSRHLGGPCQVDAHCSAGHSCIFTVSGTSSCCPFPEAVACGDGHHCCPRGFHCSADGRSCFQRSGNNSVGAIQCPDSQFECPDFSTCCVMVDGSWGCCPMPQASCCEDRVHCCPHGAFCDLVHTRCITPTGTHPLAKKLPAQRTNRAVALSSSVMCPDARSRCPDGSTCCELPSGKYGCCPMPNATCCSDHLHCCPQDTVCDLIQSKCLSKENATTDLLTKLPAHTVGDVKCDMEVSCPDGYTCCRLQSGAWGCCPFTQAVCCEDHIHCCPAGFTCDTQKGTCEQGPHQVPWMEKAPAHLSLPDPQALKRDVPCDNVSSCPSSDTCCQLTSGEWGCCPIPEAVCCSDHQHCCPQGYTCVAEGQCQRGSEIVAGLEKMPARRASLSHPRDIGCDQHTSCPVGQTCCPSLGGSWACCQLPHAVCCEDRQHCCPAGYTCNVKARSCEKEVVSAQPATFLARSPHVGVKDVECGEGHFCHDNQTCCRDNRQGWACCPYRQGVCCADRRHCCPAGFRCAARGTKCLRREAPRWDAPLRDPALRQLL
Kind of test: BLI OctetRed96, mAb captured on AHC sensors, huPGRN as analyte, 25 C. Set-up: Response: unit not given here. How it is done:
Determination of Binding Affinity by Octet. OctetRed96 BLI technology was used to examine the binding characteristics of selected fully human antibodies to progranulin. The method is briefly described herein. Assays were performed at 25° C. Pre-conditioning of the pre hydrated (1 hr) anti-human Fc capture (AHC) sensors was performed by repeating 3 cycles of dipping sensors in regeneration buffer followed by neutralizing buffer (PBS). Anti-progranulin mAbs were captured at 20 μg/ml for 360 seconds on pre-conditioned biosensors. Sensors were then dipped in baseline buffer similar to the progranulin diluent (PBS). Sensors were then dipped into progranulin-containing wells as indicated for 420 seconds. The dissociation step was carried out in assay buffer (PBS) for 600 seconds. The KD was determined based on Kₒₙ and Koff using the experimental conditions described above.

The target in test [2] is T1, human recombinant his-tagged …. Kind of test: flow cytometry: progranulin binding to MDA-MB-231 cells with the antibody, % of hIgG control. How it is done: Progranulin Binding by Flow Cytometry. Binding assays were carried out on an […] Flow Cytometer using the instructions included therein. […] Out of the 45 mAbs assayed, 11 clones (shown in bold in Table 5) produced antibodies that were able to inhibit progranulin binding in a dose dependent fashion.

B1: 10C8 (antibody, V domains shown)
VH: QVQLVQSGAEVKKPGASVKVSCKASGYTLTSYGISWVRQAPGQGLEWMGWISAYNGNTNYAQKLQGRVTMTTDTSTSTAYMELRSLRSDDTAVYYCARELLWFGELLSQYYYYGMDVWGQGTTVTVSS
VL: DIQMTQSPSTLSASVGDRVTITCRASQNISRWLAWYQQKPGKAPKLLIFRASSLETGVPSRFGGSGSGTEFTLTISSLQPDDFATYYCQQYNSYYTFGQGTRLEIK
notes: Fully human mAb from TC-mAb mouse hybridoma; also called mAb 10C8
B1: in test [1], the Kd worked out at 0.00413 nM, the Response turned out to be 0.89, the koff is 5.38e-07 s⁻¹ and the kon stood at 130000 M⁻¹ s⁻¹. Further, the “% Control” value in test [2] was determined as 55%.

B2: 14A6 (antibody, V domains shown)
VH: QVQLVESGGGVVQPGRSLRLSCAASGFTFSNYGMHWVRQAPGKGLEWVAVIWYDGSNKYYADSVKGRFTISRDNSKNTLYLQMNSLRAEDTAVYYCARGHSVSGGDYWGQGTLVTVSS
VL: DIQMTQSPSSLSASVGDRVTITCRASQSVNSFLNWYQQTPGKAPKLLIYAASSLQSGVPPRFSGSGSGTDFTLTISSLQPEDFATYYCQQSYSTPYTFGQGTKLEIN
notes: Fully human mAb from TC-mAb mouse hybridoma; also called mAb 14A6
With B2, in test [1], the Kd was determined as 0.587 nM, the Response was 0.64, the koff amounted to 2.95e-05 s⁻¹ and the kon is 50300 M⁻¹ s⁻¹. For the same molecule, the “% Control” value in test [2] stood at 116%.

B3: 10B3 (antibody, V domains shown)
VH: QVQLVESGGGVVQPGRSLRLSCAASGFTLSGYGMHWVRQAPDKGLEWVAVIWYDGSDKNYADSVKGRFTISRDNSKNTLYLQMNSLRAEDTAVYYCARDRGAVAGDYWGQGTLVTVSS
VL: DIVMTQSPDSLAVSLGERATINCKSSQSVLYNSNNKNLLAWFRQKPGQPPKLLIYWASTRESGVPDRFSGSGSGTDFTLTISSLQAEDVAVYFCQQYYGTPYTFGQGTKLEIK
notes: Fully human mAb from TC-mAb mouse hybridoma; also called mAb 10B3
Consider B3, for which, in test [1], the Kd was found to be 0.136 nM, the Response stood at 0.797, the koff was determined as 1.19e-05 s⁻¹ and the kon amounted to 86800 M⁻¹ s⁻¹. Moreover, the “% Control” value in test [2] was 62%.

B4: 16C11 (antibody, V domains shown)
VH: QVQLVESGGGVVQPGRSLRLSCAASGFTFSSYAMHWVRQAPGKGLEWVAVIWYDGSKKYNADSVKGRFTISRDNSKNTLYLQMNSLRAEDTAVYYCARDRGIGGDYWGQGTLVTVSS
VL: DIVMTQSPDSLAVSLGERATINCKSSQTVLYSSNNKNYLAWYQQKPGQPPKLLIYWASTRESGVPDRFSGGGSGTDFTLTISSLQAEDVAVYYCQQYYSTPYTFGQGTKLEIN
notes: Fully human mAb from TC-mAb mouse hybridoma; also called mAb 16C11
For B4, in test [1], the Kd was 0.476 nM, the Response is 0.932, the koff came out at 7.21e-05 s⁻¹ and the kon turned out to be 152000 M⁻¹ s⁻¹. Moreover, the “% Control” value in test [2] was determined as 60%.

One may read the Kd as the concentration at which binding is half-saturated. The term koff denotes the rate constant with which the complex falls apart. As usually defined, the kon is the rate constant with which the complex forms.

These data come from patent publication US20250154237A1 (A AND G PHARMACEUTICAL, published 2025).
